{
  "source": "paper PMC4304843",
  "about": "“Human Mitochondrial Hsp70 (Mortalin): Shedding Light on ATPase Activity, Interaction with Adenosine Nucleotides, Solution Structure and Domain Organization” (PLoS ONE, 2015)",
  "key": {"[1]": {"biological_target": "Human mitochondrial Hsp70 (mortalin), recombinant (human) (UniProt P38646)", "sequence (P38646 47-679)": "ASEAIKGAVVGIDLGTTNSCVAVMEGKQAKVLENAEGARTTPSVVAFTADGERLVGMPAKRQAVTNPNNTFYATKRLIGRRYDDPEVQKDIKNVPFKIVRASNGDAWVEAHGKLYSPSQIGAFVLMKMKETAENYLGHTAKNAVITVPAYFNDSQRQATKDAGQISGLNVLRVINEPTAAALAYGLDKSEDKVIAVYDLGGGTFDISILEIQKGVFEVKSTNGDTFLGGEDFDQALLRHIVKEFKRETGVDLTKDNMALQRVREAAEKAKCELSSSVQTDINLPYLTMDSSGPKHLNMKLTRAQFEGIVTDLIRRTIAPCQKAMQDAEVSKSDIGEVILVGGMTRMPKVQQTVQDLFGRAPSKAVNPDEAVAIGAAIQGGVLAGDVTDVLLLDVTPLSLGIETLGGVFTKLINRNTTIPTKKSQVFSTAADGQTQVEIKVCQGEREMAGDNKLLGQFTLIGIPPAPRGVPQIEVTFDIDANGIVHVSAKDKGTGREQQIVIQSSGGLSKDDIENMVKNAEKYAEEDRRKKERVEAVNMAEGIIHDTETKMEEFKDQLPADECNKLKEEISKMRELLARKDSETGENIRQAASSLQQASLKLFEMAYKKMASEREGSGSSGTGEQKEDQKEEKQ"}, "[2]": {"biological_target": "Human Hsp70-1A, recombinant (human) (UniProt P0DMV8)", "sequence (P0DMV8 whole entry)": "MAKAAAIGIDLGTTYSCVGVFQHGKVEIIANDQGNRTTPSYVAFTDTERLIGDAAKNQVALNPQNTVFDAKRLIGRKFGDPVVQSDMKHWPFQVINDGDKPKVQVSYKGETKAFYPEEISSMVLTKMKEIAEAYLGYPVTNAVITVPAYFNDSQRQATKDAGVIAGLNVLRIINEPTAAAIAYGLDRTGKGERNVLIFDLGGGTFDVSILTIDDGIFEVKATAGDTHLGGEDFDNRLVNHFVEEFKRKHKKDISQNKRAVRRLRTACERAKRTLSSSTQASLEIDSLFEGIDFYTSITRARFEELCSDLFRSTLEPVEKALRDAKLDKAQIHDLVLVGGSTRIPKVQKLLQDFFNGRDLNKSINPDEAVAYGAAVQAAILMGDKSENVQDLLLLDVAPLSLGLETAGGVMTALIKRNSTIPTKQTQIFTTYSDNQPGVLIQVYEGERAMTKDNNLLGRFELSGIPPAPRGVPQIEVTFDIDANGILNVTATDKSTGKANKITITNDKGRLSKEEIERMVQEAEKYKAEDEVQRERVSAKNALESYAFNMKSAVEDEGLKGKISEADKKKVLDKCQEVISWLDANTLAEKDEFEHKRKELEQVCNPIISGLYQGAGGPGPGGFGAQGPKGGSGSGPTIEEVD"}},
  "data": [
    {"binder": "NRLLLTGY", "note": "[NR peptide (NRLLLTGY)]", "values": [
      {"measurement": "EC50 of the stimulation of the basal ATPase activity of mortalin by NR peptide titration (1 mmol/L ATP, 37°C)", "setting": "[1]", "value": 7, "unit": "µM"},
      {"measurement": "relative stimulation of the basal ATPase activity of mortalin at increasing NR peptide concentrations; maximum reached at 100 μmol/L NR peptide", "setting": "[1]", "value": 25, "unit": "%"},
      {"measurement": "EC50 of the stimulation of the basal ATPase activity of Hsp70-1A by NR peptide titration (1 mmol/L ATP, 37°C)", "setting": "[2]", "value": 170, "unit": "µM"},
      {"measurement": "relative stimulation of the basal ATPase activity of Hsp70-1A at increasing NR peptide concentrations; maximum reached at 500 μmol/L NR peptide", "setting": "[2]", "value": 15, "unit": "%"}
    ]}
  ]
}
